Experimental data published in the supplement of paper PMC7125110.
± gives the standard error. This sample holds only a part of the variants without activity.

B1: glmS ribozyme (parent)
chain: AUAAAAGCGCCAGAACUACAGAAAUGUAGUUGACGAGGAGGAGGUUUAUCGAAUUUUCGGCGGAUGCCUCCAAA

Key:
Conditions in all cases: with glucosamine-6-phosphate
glucosamine-6-phosphate [1] = variants of: B1; assay: self-cleavage kobs at 40 uM GlcN6P; higher = faster cleavage; RNA array
Summary of the method: (§1)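 Tracking of barcoded ribozyme variants used a hybridised Cy3 probe at 37 °C, after in situ transcription by E. coli RNA polymerase on sequenced MiSeq chips. The flowed solution held 40 μM to 10 mM glucosamine-6-phosphate in HEPES/KCl/Mg(OAc)2 buffer, and imaging ran over ~14 h. kobs was taken from exponential decay fits of normalised per-tile medians, and kcat and KM from weighted Michaelis–Menten fits.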

glucosamine-6-phosphate [2] = variants of: B1; assay: self-cleavage kobs at 160 uM GlcN6P; higher = faster cleavage; RNA array
Summary of the method: as §1

glucosamine-6-phosphate [3] = variants of: B1; assay: self-cleavage kobs at 640 uM GlcN6P; higher = faster cleavage; RNA array
Summary of the method: as §1

glucosamine-6-phosphate [4] = variants of: B1; assay: self-cleavage kobs at 2500 uM GlcN6P; higher = faster cleavage; RNA array
Summary of the method: as §1

glucosamine-6-phosphate [5] = variants of: B1; assay: self-cleavage kobs at 10000 uM GlcN6P; higher = faster cleavage; RNA array
Summary of the method: as §1

Variant	self-cleavage kobs at 40 uM GlcN6P (glucosamine-6-phosphate [1])	self-cleavage kobs at 160 uM GlcN6P (glucosamine-6-phosphate [2])	self-cleavage kobs at 640 uM GlcN6P (glucosamine-6-phosphate [3])	self-cleavage kobs at 2500 uM GlcN6P (glucosamine-6-phosphate [4])	self-cleavage kobs at 10000 uM GlcN6P (glucosamine-6-phosphate [5])
C8U G37C	< 1e-05 s⁻¹	< 1e-05 s⁻¹	< 1e-05 s⁻¹	< 1e-05 s⁻¹	< 1e-05 s⁻¹
G9A G13C	< 1e-05 s⁻¹	< 1e-05 s⁻¹	< 1e-05 s⁻¹	< 1e-05 s⁻¹	
G51U A64G	< 1e-05 s⁻¹	< 1e-05 s⁻¹		< 1e-05 s⁻¹	
C11A G40C U54A	< 1e-05 s⁻¹				
C10A U30G C71U	< 1e-05 s⁻¹				< 1e-05 s⁻¹
C34A U65G	< 1e-05 s⁻¹	< 1e-05 s⁻¹	< 1e-05 s⁻¹	< 1e-05 s⁻¹	< 1e-05 s⁻¹
A48G C50A	< 1e-05 s⁻¹	< 1e-05 s⁻¹	< 1e-05 s⁻¹	< 1e-05 s⁻¹	
C11A U45C A48G	< 1e-05 s⁻¹		< 1e-05 s⁻¹	< 1e-05 s⁻¹	< 1e-05 s⁻¹
G59U C61G A64G	< 1e-05 s⁻¹		< 1e-05 s⁻¹	< 1e-05 s⁻¹	< 1e-05 s⁻¹
C8G U45A	< 1e-05 s⁻¹	< 1e-05 s⁻¹	< 1e-05 s⁻¹		< 1e-05 s⁻¹
G7C U45G	< 1e-05 s⁻¹	< 1e-05 s⁻¹	< 1e-05 s⁻¹	< 1e-05 s⁻¹	< 1e-05 s⁻¹
A12U G37C A42U A48C	< 1e-05 s⁻¹				
A14U A42G G44U G63U	< 1e-05 s⁻¹			< 1e-05 s⁻¹	
U30G U45A A64C	< 1e-05 s⁻¹				7e-05 ± 1.7e-05 s⁻¹
A39G G43U G44U U55G	< 1e-05 s⁻¹		< 1e-05 s⁻¹	< 1e-05 s⁻¹	< 1e-05 s⁻¹
A42G U55A	0.00136 ± 0.00015 s⁻¹	0.00202 ± 0.00052 s⁻¹	0.0283 ± 0.0091 s⁻¹	0.0289 ± 0.0077 s⁻¹	0.0423 ± 0.013 s⁻¹
C11G C58G	< 1e-05 s⁻¹	< 1e-05 s⁻¹	< 1e-05 s⁻¹		< 1e-05 s⁻¹
A36U U69G C71U	0.000104 ± 4.8e-05 s⁻¹				
C10U C67U C70U	< 1e-05 s⁻¹				< 1e-05 s⁻¹
C16A G44U	< 1e-05 s⁻¹	< 1e-05 s⁻¹	< 1e-05 s⁻¹		
